Measurements as given in PMC9799976.
One block for each binder: values may come before it.

Experiments:
[1] = target: full-length human dynein complex (heavy chain with SNAP-tag, IC, LIC, Tctex, LC8, Robl) (human) (UniProt Q14204)
[2] = target: tail-truncated single-headed human dynein (amino acids 1320-4646 of DYNC1H1), N-terminal GFP (human) (UniProt Q14204)
[3] = target: full-length human dynein complex (heavy chain with SNAP-tag, IC, LIC, Tctex, LC8, Robl) (human) (UniProt Q14204); test: single-molecule TIRF microscopy; 10 nM JIP3 (Halo-JF646) on surface-attached MTs, without or with 1 nM dynein; dwell time of JIP3 on MT-bound dynein

tail-truncated single-headed human dynein (amino acids 1320-4646 of DYNC1H1), N-terminal GFP (human), sequence (Q14204 1320-4646): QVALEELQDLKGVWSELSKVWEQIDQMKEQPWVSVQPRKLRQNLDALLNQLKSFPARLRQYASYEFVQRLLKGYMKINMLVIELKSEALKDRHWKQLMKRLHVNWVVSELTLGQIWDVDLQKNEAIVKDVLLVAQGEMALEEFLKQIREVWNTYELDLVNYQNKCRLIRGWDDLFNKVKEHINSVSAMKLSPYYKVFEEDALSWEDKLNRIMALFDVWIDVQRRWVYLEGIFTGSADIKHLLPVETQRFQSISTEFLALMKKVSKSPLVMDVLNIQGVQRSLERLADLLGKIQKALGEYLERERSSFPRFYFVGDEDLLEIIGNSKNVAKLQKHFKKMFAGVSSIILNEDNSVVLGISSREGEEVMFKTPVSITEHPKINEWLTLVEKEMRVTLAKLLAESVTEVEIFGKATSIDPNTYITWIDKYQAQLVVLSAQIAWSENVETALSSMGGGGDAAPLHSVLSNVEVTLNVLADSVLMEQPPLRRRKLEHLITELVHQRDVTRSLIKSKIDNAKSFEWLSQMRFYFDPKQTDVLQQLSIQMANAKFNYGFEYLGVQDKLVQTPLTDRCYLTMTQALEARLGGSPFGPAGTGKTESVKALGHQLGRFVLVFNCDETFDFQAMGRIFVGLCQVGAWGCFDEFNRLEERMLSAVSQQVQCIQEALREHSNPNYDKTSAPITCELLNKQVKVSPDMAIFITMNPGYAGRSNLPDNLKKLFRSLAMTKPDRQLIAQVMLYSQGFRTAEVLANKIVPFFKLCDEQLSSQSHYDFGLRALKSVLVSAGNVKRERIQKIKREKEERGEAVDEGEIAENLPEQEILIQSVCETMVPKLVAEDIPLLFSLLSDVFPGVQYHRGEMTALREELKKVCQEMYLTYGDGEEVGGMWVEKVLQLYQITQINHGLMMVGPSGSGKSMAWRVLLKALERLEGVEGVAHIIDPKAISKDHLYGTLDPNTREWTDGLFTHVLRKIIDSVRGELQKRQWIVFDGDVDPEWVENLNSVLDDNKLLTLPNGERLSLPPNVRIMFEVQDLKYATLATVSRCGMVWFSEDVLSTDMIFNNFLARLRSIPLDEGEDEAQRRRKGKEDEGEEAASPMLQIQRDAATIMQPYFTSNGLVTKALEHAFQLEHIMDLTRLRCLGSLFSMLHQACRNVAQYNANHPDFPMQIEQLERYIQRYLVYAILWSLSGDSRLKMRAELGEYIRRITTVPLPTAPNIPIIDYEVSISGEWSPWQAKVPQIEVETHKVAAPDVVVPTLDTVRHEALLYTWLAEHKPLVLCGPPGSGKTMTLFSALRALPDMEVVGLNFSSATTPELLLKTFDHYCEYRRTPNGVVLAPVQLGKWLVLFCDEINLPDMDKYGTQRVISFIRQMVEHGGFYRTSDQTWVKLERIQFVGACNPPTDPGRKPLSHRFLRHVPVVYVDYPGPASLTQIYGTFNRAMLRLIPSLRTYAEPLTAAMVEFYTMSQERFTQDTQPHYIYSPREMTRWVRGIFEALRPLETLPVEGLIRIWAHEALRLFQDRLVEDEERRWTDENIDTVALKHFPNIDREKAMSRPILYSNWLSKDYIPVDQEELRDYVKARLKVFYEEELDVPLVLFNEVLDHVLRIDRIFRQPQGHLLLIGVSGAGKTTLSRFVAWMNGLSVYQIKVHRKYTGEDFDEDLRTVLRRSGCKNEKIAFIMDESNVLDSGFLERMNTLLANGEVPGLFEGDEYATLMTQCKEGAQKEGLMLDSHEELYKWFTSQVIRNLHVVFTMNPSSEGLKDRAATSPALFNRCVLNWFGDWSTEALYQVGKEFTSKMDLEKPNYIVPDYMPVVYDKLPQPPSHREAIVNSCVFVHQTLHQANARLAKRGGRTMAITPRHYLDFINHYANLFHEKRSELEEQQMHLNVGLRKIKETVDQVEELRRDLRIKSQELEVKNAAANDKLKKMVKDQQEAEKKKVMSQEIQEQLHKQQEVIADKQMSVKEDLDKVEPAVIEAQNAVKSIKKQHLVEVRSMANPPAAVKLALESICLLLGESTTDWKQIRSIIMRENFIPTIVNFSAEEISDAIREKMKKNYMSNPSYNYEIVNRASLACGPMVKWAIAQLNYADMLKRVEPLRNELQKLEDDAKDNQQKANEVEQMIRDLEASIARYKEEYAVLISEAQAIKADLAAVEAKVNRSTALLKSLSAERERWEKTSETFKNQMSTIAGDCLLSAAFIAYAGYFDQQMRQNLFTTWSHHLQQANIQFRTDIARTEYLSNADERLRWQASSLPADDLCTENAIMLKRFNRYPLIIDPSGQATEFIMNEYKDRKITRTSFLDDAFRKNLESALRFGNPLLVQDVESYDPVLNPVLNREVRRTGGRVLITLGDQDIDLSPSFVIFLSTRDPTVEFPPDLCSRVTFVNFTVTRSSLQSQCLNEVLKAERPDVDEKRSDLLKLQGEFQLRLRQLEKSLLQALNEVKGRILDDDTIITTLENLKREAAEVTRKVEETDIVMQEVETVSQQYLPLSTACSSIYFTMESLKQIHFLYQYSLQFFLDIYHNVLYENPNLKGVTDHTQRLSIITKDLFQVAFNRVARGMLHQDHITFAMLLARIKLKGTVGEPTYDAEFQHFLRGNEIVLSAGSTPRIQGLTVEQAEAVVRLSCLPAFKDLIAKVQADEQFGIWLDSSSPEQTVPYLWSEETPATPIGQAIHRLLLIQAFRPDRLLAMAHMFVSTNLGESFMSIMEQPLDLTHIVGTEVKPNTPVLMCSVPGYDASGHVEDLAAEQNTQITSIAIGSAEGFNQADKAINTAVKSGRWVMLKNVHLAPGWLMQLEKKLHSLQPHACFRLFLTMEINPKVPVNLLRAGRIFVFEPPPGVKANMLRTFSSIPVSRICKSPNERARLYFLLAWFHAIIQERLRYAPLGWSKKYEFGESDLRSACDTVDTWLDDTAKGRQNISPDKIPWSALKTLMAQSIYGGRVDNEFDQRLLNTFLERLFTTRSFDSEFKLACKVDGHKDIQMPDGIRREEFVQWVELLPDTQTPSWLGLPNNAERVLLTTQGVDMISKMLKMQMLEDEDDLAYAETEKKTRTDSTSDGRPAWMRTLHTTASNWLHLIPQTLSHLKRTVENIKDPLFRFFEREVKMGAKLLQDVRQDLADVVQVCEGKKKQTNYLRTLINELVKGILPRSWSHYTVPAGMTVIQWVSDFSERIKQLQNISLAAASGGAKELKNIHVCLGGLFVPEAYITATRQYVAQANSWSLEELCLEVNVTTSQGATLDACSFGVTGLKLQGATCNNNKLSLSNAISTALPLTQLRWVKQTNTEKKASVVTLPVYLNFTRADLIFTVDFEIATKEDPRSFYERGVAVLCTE

velocity of DDJ motor complexes on MTs with 10 nM DCX (DDJ only: 0.76 [0.65, 0.89] µm/s) [1]: 0.62 µm/s
B1: full-length DCX with a C-terminal ybbR-tag (DCX-ybbR) (natural protein)
chain: MELDFGHFDERDKTSRNMRGSRMNGLPSPTHSAHCSFYRTRTLQALSNEKKAKKVRFYRNGDRYFKGIVYAVSSDRFRSFDALLADLTRSLSDNINLPQGVRYIYTIDGSRKIGSMDELEEGESYVCSSDNFFKKVEYTKNVNPNWSVNVKTSANMKAPQSLASSNSAQARENKDFVRPKLVTIIRSGVKPRKAVRVLLNKKTAHSFEQVLTDITEAIKLETGVVKKLYTLDGKQVTCLHDFFGDDDVFIACGPEKFRYAQDDFSLDENECRVMKGNPSATAGPKASPTPQKTSAKSPGPMRRSKSPADSGNDQDANGTSSSQLSTPKSKQSPISTPTSPGSLRKHKDLYLPLSLDDSDSLGDSM
modifications: CoA-CF488 or CoA-JF549 on the ybbR-tag

velocity of DDJ motor complexes on MTs with 10 nM N-DCX (DDJ only: 0.76 [0.65, 0.89] µm/s) [1]: 0.54 µm/s | velocity of MT gliding powered by surface-bound single-headed dynein with 10 nM N-DCX, not significantly changed (without N-DCX: 0.59 [0.56, 0.63] µm/s) [2]: 0.58 µm/s
B2: N-DCX with a C-terminal ybbR-tag (N-DCX-ybbR) (domain or fragment)
chain: MELDFGHFDERDKTSRNMRGSRMNGLPSPTHSAHCSFYRTRTLQALSNEKKAKKVRFYRNGDRYFKGIVYAVSSDRFRSFDALLADLTRSLSDNINLPQGVRYIYTIDGSRKIGSMDELEEGESYVCSSDNFFKKVEYTKNVNPNWSVNVKTSANMKAPQSLASSNSAQARENKDFVRPKLVTIIRSGVKPRKAVRVLLNKKTAHSFEQVLTDITEAIKLETGVVKKLYTLDGKQVTCLHDFFGDDDVFIACGPEKFRYAQDDFSLDENE
modifications: CoA-CF488 or CoA-JF549 on the ybbR-tag

dwell time of JIP3 on dynein [3]: 0.42 s
B3: mouse JIP3 (amino acids 1-240; cloned as 3-240) with C-terminal HaloTag (domain or fragment)
chain: EIQMDEGGGVVVYQDDYCSGSVMSERVSGLAGSIYREFERLIHCYDEEVVKELMPLVVNVLENLDSVLSENQEHEVELELLREDNEQLLTQYEREKALRKQAEEKFIEFEDALEQEKKELQIQVEHYEFQTRQLELKAKNYADQISRLEERESEMKKEYNALHQRHTEMIQTYVEHIERSKMQQVGGSGQTESSLPGRSRKERPTSLNVFPLADGMVRAQMGGKLVPAGDHWHLSDLG
modifications: Halo-JF646 on the HaloTag
